For one series, the system named is NASH-related proteases. Nature of the series: Probe cleavage in mouse plasma, NASH vs healthy (RFU per minute). The format is biochemical. The conditions noted are these: for disease contrast (NASH vs healthy): mouse plasma; for ability to distinguish (differentiate) between NASH and healthy samples: activity as RFU per minute in 1% mouse plasma, NASH (CDAHFD) vs healthy (CD). On the procedure: All animals were used in accordance with animal care guidelines. Plasma was obtained from these blood samples by centrifugation at 3,500 RPM for 20 min at 4° C. The plasma was stored at −80° C. until it was needed for experimental purposes.
Samples were mixed with protease substrates and quenchers/reporters in 96-well plates. The 96-well plates were read on a Biotech Synergy H1, using 465,535 excitation/emission settings.
The probes of the present application were able to measure the activity of NASH-related proteases as expressed in Relative Fluorescent Unit (RFU) per minute in the two mouse populations. Probes measuring cathepsin activity were 3-fold higher in protease cleavage kinetics in mice with NASH compared to healthy mice.
Using the method of the above example, PEGylated probes were used to measure the activity of NASH-related proteases, as expressed in RFU per minute in 1% mouse plasma samples.

A further series concerns the target DPP4 (Homo sapiens, UniProt P27487). Briefly: Recombinant protease panel, probe cleavage: dpp4. The format is biochemical. The conditions noted are these: expressed in RFU per minute. On the procedure:
Substrate plates were thawed and spun down for 5 minutes to ensure the substrates were at the bottom of the wells. Proteases for each substrate plate were prepared by adding 1 protease per plate. Proteases were then diluted to 15 nM in 2 mL of specified protease buffer (see Table 5). Assay buffer was added to control wells while […] active enzyme in assay buffer was added to each sample well. Plates were spun down and then read immediately after centrifugation.

For series [1], the system named is Probe #768, K(Acc)(Sar)G(PEG8)K(Dnp)k.
Series [2] concerns Probe #766, K(Acc)(Hyp)G(PEG8)K(Dnp)k.
Series [3] deals with most other probes (FIG. 16).
For series [4], the system named is Probe #762, K(Acc)(Pro-4-Obzl)G(PEG8)K(Dnp)k.

DPP4, sequence (P27487 whole entry, species assumed): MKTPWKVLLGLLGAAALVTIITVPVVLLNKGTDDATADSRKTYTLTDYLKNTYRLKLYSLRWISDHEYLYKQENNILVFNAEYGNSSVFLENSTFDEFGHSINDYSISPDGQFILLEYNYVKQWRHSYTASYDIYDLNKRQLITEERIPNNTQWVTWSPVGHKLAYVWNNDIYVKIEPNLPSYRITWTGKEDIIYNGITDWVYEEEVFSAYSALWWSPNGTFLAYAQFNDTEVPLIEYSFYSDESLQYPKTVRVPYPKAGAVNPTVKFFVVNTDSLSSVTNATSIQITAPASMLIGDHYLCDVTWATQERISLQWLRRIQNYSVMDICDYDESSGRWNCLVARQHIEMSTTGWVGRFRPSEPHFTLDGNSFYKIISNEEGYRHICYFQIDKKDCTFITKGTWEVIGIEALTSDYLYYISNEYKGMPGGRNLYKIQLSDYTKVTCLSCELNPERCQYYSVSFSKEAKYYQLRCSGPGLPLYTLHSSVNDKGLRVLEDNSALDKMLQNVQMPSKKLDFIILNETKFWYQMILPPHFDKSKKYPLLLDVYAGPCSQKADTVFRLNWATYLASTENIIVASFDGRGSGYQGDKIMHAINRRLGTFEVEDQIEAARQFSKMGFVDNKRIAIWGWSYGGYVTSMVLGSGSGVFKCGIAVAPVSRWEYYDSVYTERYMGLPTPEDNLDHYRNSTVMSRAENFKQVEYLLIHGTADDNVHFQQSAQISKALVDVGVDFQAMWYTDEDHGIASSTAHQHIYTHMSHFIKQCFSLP

As to AK(Acc)G-PEG8-K(Dnp)-k [Probe #680], the “disease contrast (NASH vs healthy)” value in the series with NASH-related proteases is given as “Lys-Ala motif of Probe #678 (FIG. 13A) displays stronger disease contrast than the Ala-Lys motif of Probe #680”.
Consider K(Acc)AG-PEG8-K(Dnp)-k [Probe #678], for which the “ability to distinguish (differentiate) between NASH and healthy samples” value is “ability to distinguish between NASH and healthy samples” in the series with NASH-related proteases; “able to differentiate between NASH and healthy samples” in the series with NASH-related proteases (listed as probe 678). The “disease contrast (NASH vs healthy)” value in the series on NASH-related proteases was “stronger disease contrast than the Ala-Lys motif of Probe #680”. For the same substance, the “DPPIV (DPP4) protease activity on the probe (cleavage)” value at DPP4 is “needed for measuring DPPIV activity”.
Take aminopeptidase n/CD13: the “hydrolysis of fluorogenic probe by protease” value in series [1] is on record as “evade hydrolysis from Aminopeptidase N”; in series [2], “evade hydrolysis from Aminopeptidase N”; in series [3], “most other probes are susceptible to cleavage”; in series [4] it was “evade hydrolysis from Aminopeptidase N”.
Consider dipeptidyl-peptidase 4 (DPP4 or DPPIV), for which the “cleavage of fluorogenic probe by protease panel” value in series [1] and in series [2] was “selective for dipeptidyl peptidases with strong preferences for DPP4” each time. In addition, in the series on a substrate (FIG. 19C), the “cleavage of fluorogenic substrate (fluorescence over time)” value is recorded as “a substrate is rapidly cleaved by DPP4 (square markers) but remains intact in buffer alone with no protease present”.
In the case of dpp2/7, in series [4], the “cleavage of fluorogenic probe by protease panel” value is recorded as “Probe #762 is selective for DPP2”.
